Here are results for 18 sequences from the DeepSol protein solubility set.

The data set in a line: soluble on expression in E. coli; label from the status in PepcDB or PDB records.
Take “MASNEVLVLRGTLEGHNGWVTSLATSAGQPNLLLSASRDKTLISWKLTGDDQKFGVPVRSFKGHSHIVQDCTLTADGAYALSASWDKTLRLWDVATGETYQRFVGHKSDVMSVDIDKKASMIISGSRDKTIKVWTIKGQCLATLLGHNDWVSQVRVVPNEKADDDSVTIISAGNDKMVKAWNLNQFQIEADFIGHNSNINTLTASPDGTLIASAGKDGEIMLWNLAAKKAMYTLSAQDEVFSLAFSPNRYWLAAATATGIKVFSLDPQYLVDDLRPEFAGYSKAAEPHAVSLAWSADGQTLFAGYTDNVIRVWQVMTAN”: the “soluble on expression in E. coli” value is listed as “soluble”.

For “MSLGFSTYRATNYNEGTAYGNTPVILTLKSTSKSNLKTAVEELQKLNASYSNTTTLAGDDRIQTAIEISKEYYNNDGEKQDHSADVKENVKNVVLVGANALVDGLVAAPLAAEKDAPLLLTSKDKLDSSVKSEIKRVLDLKTSTEVTGKTVYLAGGVNSVSKEVVTELESMGLKVERFSGDDRYETSLKIADEIGLDNDKAYVVGGTGLADAMSIASVASTKLDGNGVVDKTNGHATPIVVVDGKADRISDDLDSFLGSADVDIIGGFASVSEKMEEAISDATGKGVTRVKGDDRQDTNSEVIKTYYANDTEGHHHHHH”, the “soluble on expression in E. coli” value was “soluble”.

On to “MAHHHHHHMIPKESMNVDQSRYETQEGTIVENKLTPFLELTSGEIPMWVKQKYLLSPIDTSKYSDDFYKLGPDDFGKLSGEQVKPDLIKSKLPSSVLHKIWNLADITKDGYLDLFEYSLARHFIEMKTEGFDLPTKVPKDIINSHEY”, for which the “soluble on expression in E. coli” value is reported as “soluble”.

As to “MAHHHHHHMNEAAPFCVAPQTWQGGLARYPVSQSHVWNNNIILQPEDIDVEVFNAMSQVESQYNKNEISVEDFEMLQLTFCLFTVNQSCYDLIPNGREIRVTQANAFEFFQRVHAAYDNMKQRPALNQPTQSNHRPRLRTSGTRLRLTGQDTDSLEWIRWTAQNNPAALAFHPDEPLRWAVVPRSRDFMIRVQPEGENTFVDPDHLTLFLDMLAVLLTEIERAISVFGYYPPNCVSAAPVECADEYSIYTSHTTRATRLPFPSQRVNSRGFSALHKFPMPVTAAAAAAAAAATEQNRRTVRRASSADLENQRALCSPTHDTGGLLAPFQEWNV”, the “soluble on expression in E. coli” value is on record as “not soluble”.

As to “MQLRKKLHEAIVDGEEDDCPKRKIKKLDIQVDAATKVFSNQHILHDIIEYTVDGDKSILDNLRLRLVSRSFNNVVLSKVRAEFKMVQVCPYQQPEGADEKEEPEYDESNDIEDRSFMINDRRTWFSQVPRFFEFLNSVARIRVRDLLFSGFTSPDQRIHECILYSLLDGNWYSLNSYKGADELCNGCAVCSGNCFPLLAEIALHCVTMVGSREEAFSRLTKMITQDVNCDQLDLVFSDRCMWSKGTLAHPREVIDRIVKAWRVKSINIRFMTEYSSIDHEMWSNKRIFTEMRFDEMFVTDHNIIRPRHERDHFERVEVDMQAGDEIATCFAESMGMFEQSGMSATAFQNVCANVKRIFPTQDMYLILPTELAHVASVEFDGFCKALLEFAWKDERTARHSRLFFRLYTFGITEEQVLRQTENQFKINCRPVAAMLSDSSVRRSFLQWLPGSTSTFDRSLLSFTDVWNNCVLHLEVCIEADC”, the “soluble on expression in E. coli” value was “not soluble”.

As for “MANAADDRRPKYQRIADTLREAIRSGEYGPGDRLPGENDLMATHGVARMTARQALSVLRDEGVAEARKGAGVFVREFRPLRRRGIQRLARQQWGNGRSIWSADIEDRSLDVDQVTVSEEAAPDGVAAVLDLADGETVCVRRRRFVLDGKPVLLATSYLPAALVAGSAITQEDTGKGGTYARLAELGHGPVHFREEIRSRMPSKAEASQLSVAAGTPVILICRTAFTDEGRAVEINEMTLDAASYVLEYDFDA”, the “soluble on expression in E. coli” value is “not soluble”.

In the case of “MSLELKPKRFLVLDDQLVLRKLISRQASFFTRFAVEIDEFSDPAEALRSIAEGGYHLVITDIGMPGMNGIDFIKNVARLGYQSALLIISGYDGKTLQTIADMSVNLGLSCTRFLSKPYSAEAFVAALNGIFSEMERSEAPAVGDVAQLLADLGGETFRMQFAPVRSLHGRRLAGFTLRTLQLPDGRRLAFDRLLALLAGRRMASAALLEIVVERTARLLQDMRLSAGIDDCRVNIRIDEACLSADNVFDRCFMALQQSEVSPACLGFALADGLNRRSDALCFENIAKVKYLGFRLLADGFGQGSLTVSNLFRLPFDQVNAPLEALQWMKILQGEDPGAFRLLRSFGLGQAPVCATGLDDEESLALAQALGCGLGEGDAVSLAVPEEELLQEMAAVPEGEGHHHHHH”, the “soluble on expression in E. coli” value is “soluble”.

Take “VREILSIHVGQCGNQIADSFWRLALREHGLTEAGTLKEGSNAAANSNMEVFFHKVRDGKYVPRAVLVDLEPGVIARIEGGDMSQLFDESSIVRKIPGAANNWARGYNVEGEKVIDQIMNVIDSAVEKTKGLQGFLMTHSIGGGSGSGLGSLILERLRQAYPKKRIFTFSVVPSPLISDSAVEPYNAILTLQRILDNADGAVLLDNEALFRIAKAKLNRSPNYMDLNNIIALIVSSVTASLRFPGKLNTDLSEFVTNLVPFPGNHFLTASFAPMRGAGQEGQVRTNFPDLARETFAQDNFTAAIDWQQGVYLAASALFRGDVKAKDVDENMATIRKSLNYASYMPASGGLKLGYAETAPEGFASSGLALVNHTGIAAVFERLIAQFDIMFDNHAYTHWYENAGVSRDMMAKARNQIATLAQSYRDAS”: the “soluble on expression in E. coli” value was “soluble”.

On to “MSTKVKKTTQLKQMLNSKDLEFIMEAHNGLSARIVQEAGFKGIWGSGLSVSAQLGVRDSNEASWTQVVEVLEFMSDASDVPILLDADTGYGNFNNARRLVRKLEDRGVAGACLEDKLFPKTNSLHDGRAQPLADIEEFALKIKACKDSQTDPDFCIVARVEAFIAGWGLDEALKRAEAYRNAGADAILMHSKKADPSDIEAFMKAWNNQGPVVIVPTKYYKTPTDHFRDMGVSMVIWANHNLRASVSAIQQTTKQIYDDQSLVNVEDKIVSVKEIFRLQRDDELVQAEDKYLPKN”, for which the “soluble on expression in E. coli” value was “soluble”.

Regarding “MKEIKVNELTDNLFETISKEWMLVTAGTKDKFNTMTANWGGAGFLWNRPVAFIFIRPERYTFDFIEQNDYLTLSFLGEEHKEIHKICGSKSGRDMDKVKATGLSPLFTENGSITFEQARLTFECKKLYADLIKPGNFIDKSITDRWYGESHGGFHKMYVVEIVNVLSR”, the “soluble on expression in E. coli” value is listed as “soluble”.

“MLRFGFAAVLLVLAGCSAPMGPEALGPGSYQAAPDPGPFLTPADAQRAFPAVVARVEPVAEAICRERTRGVPCDFQIAVDARPGLDPNAFQTLDDYGRPVIGLTLSLISDARNVDELAFVVGHETAHHILGHIPRQRETALTGAVLAGVLAQMGGADAQTIRSVQEFGANVGARSYSKNFELEADGLGTEIAIRAGYDPVHGAQFFTRLPDPGDTFLGSHPPNAQRIAAVRRAAESIGYVSAWLEHHHHHH”: the “soluble on expression in E. coli” value is recorded as “not soluble”.

Take “MQLNATQLQAALPWDSLIEALKDIFVREVCSPVRHHHSINVPDKLSATLLLMPAWLEGEYLGIKQVNVFPSNNVSNIPALSSHYMLSCGKTGQPLMQLDGNELTARRTAAASALASAYLSREDARVMLMVGSGRMARRLITAHMSVRPIKIVQVWDRKEEKAQTLVTELKESGINAEVCKPDNLQAAAQQADIISCATMATSPLILGKWLKPGAHLDLVGSFTPTMRETDNAAMQLCSVFVDTRAGALSETGDLIIPIRDGAITQEKIIAEFTQLCSGEHRGRADLANPDNSITLFKSVGDSREDLAAAILAFEQCNQR”: the “soluble on expression in E. coli” value was “not soluble”.

“MGSDKIHHHHHHMIKNNRVYGIIGVGAYMANFNADLSGYPKTTTNNDIFGSDKALKYPMKRMWLIEGDKVFYIKSMTIAKSKKDKEMEILQPKDLIERYEDLFGKEWDANLTVKDVAKDLFSTVDIMNFGATFTGSESESKTAKKKIGHNISITGAVQINQGFNLYEKTNVLVQDILSPFRNPNDKSEDKTATSIGTKIVTDEAHYVYSFSVNPANYADYLGLIDGFEGYTTEAYEKFKRAARVATTAFNTNSKSGCENELALFIELKEDSKLFLANLDRYVEVRKKEKQTLYDLSKLAEIIAPQQEEIQSIELFHNPISVEVNYGSLPCTVNSIF”: the “soluble on expression in E. coli” value is “not soluble”.

With “MSLKPVGLNYFSEKKGLLTDEDLMEDEHYCGMSFRGDEKKSIFGIFDGYGGIGAARETRRTLPNIIQKLIEQGLDSKEILEKGFSEVDEGMNKEEFMDIGCTCTLIYIWEEDNKVYIRSGNVGDSTCFVKKMNKGKPEIITLSQDHKVTSACEQKRMKEAGITLVEGQKRINGVGVARTLANHFVKNLNIGMIGTPYISPAIVLESGDEIILCSDGIWDVITPEKAFEMMENTQVSEAPKVIMEESMKITECRDNVTVIVVKILEGHHHHHH”, the “soluble on expression in E. coli” value was “not soluble”.

Take “DIINFFKQITDHEPYDYQIRAWEKINKIMELGGRVVIEIPTAGGKTEAAIIPYLYQFISNDWKVPRLIYVLPTRSLVEKQVERIRNYIKKILEIKGYSKDKVEELAKKIVQVEYGLEETHAFLGFVVLTTWDTFLYGLAAHRTVGDRFTFPCGAIAQSLVVFDEIQMYQDESLYMPRLIGLVVKRLVEANVPLVFMTATLPTELKKILGIHDEEPITVNPEDT”: the “soluble on expression in E. coli” value is recorded as “not soluble”.

Regarding “MKTNKKDEETGGNVYAHLDKTSVLQEARAFNETPINARKCCFILSKLIYIIQQGESIGRTEATEAFFGVTKLWQSKDVSLRRMVYLAVKELAEVSDDVIIVTSSLTKDMTGREDLYRAAAIRALCKITDTGMLQTIERYMKQAIVDRNSAISSSAIVSSIHLMRKSSEVVRRWANEVQEAVSSDNHMVQYHALALLYQIRANDRLAVNKLVQKFSKNALRSPYAVCYLIRIATRCLVDDDQPDSSVFTFIESCLRHKSEMVVYEAARAIVSLPQTTPSEIQPAITALQMCCTSPKAAVRFAAVRTLNKVAMAHPNAVMSCNVDLEKFITDPNRSIATLAITTLLKTGAESSVERLMQQIAGFVNEISDEFKIVVVDAIRSLCSRYPRKHTVMMPFLAKMLRSDGSYDYKKAIVETIIAIIEENPDAKVAGLAHLCEFIEDCEHDNLSTRVLHLLGREAPKTPNPSSYIRFIYNRVILESTKVRAAAVTALAKFGAQCVDLRPSIQVLLKRCLLDSDDEVRDRATFYLKMLTEAAEGLIHNFILDGLQVSPSGLERSILDYLRSGSYSSPFDLRVVPVTQQALSQPEKRVPQLVEEEEKPKAPKVEPYAAQLAAIPQFAALGPVFKSSTRIALTESIAEYTVHMIKHTFANAMVLQFECKNTMNDQLLLDVSVELEDPDGEWETGNTVQIDKLPYGEVHSAFSLLEFPDSGAISGSLGAILKFKVMDVDPTSGEPDSDDTYEQTYVLEEVDVNVSDSVQGVAKSSFGSAWEALGDDATREETFQLSTVENIPDAVKKISEILGLVPCERSDRVPEGKTQHTVFLSGVFRGGYDVLSKATVAVDPNDNSIAMNIIIKSNEPLVADLVISAVV”, the “soluble on expression in E. coli” value is on record as “not soluble”.

As to “MIERVKGTRDFLPEDMAKRRWVFEKIREVFEAYGFKEILTPVMEYTKLFQLRSGEEVVKQLYAFKDKGGRDVSLRPDMTSSVARLYVNSFQMAPKPIKWYYIANMFRYEEPQSGRYREFWQAGVELIGSDKVEADAEVIALFVESYLSTGLRDFTVNIGDRILLDEFAGMLGVSDDIGLMRIIDKRDKLSQEEFINLLKEFGLGESEIEKVLELVEIKGRPDNVLPLAEELFKSKKAKEEISKLYKLTDLLEWYGVKDWIRIDLGIARGFDYYTSIVFEAISPNELGIGSIGGGGRYDNLIEIFGGKPTPATGFAIGIERLLPILEWKGLIPKPQTGPEVFVIPLKDMEKVAINIAVKLRREKIKTDIELSGRKLGKALDYANRVGAKLVIIVGKRDVERGVVTIRDMESGEQYNVSLNEIVDKVKNLLKR”, the “soluble on expression in E. coli” value is “soluble”.

Take “MGSDKIHHHHHHMQPTIDQKKNPAIGNQRVTKRRKTIAQGLIQEGIELEIIQSWLFAIAQMWEVGHIPPILRGISHKSQVEALFRISQIGETIQKVHEKLAGEYYQDWVKSLNRAGLHTPSEIISAITEIQQVVKPEAIDTTKQLLNKLELEIIGMKDGDFFPTPKPLCQRLVQLADIKPNWQILEPSAGSGNIAEYITNTYPNVQLEVVEINYDLRQILELKGFNLVGKNFLEFNPSHLYNACIMNPPFCELVQHIYQAWKLLITGGVLVSVIPESVFFNRKYKTFKNWLLANNSYVEMVDKDAFLSSNNPTNVATRIIKLIKP”: the “soluble on expression in E. coli” value is reported as “not soluble”.
